T1: human CD19 on cells (Nalm-6, Z-138) (human, UniProt P15391 20-556)
T1 sequence (looked up): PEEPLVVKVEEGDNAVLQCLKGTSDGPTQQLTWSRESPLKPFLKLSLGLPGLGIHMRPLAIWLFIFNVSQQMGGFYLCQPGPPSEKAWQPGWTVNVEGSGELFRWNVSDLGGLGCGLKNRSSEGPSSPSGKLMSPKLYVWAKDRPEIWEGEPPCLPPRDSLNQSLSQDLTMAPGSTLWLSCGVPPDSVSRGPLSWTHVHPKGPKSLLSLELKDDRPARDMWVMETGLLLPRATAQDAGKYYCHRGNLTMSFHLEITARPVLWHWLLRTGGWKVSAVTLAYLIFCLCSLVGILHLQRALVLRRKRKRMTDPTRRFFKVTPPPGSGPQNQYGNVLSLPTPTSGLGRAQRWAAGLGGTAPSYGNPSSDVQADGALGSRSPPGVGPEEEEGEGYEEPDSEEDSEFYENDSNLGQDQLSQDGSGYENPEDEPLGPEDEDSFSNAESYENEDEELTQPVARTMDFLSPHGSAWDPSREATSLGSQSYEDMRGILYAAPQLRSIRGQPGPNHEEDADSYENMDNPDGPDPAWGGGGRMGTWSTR


Assays:
[1] = target: T2, CD19 extracellular domain (ECD)-Fc fusion (human, UniProt P01857 104-328 = IgG part); test: SPR, TCB captured by anti-PG antibody, CD19 ECD-Fc as analyte, 25°C
T2 construct: Monovalent CD19 ECD on a knob-into-hole Fc; also called CD19 antigen; recombinant human CD19
Description: (§1) SPR experiments were performed, using the CD19-TCB molecules prepared in Example 15, on a Biacore T200 instrument at 25° C. with HBS-EP+ as running buffer (0.01 M HEPES pH 7.4, 0.15 M NaCl, 0.005% Surfactant P20 (GE Healthcare, #BR-1006-69)). Anti-PG antibody (see Example 3) was directly immobilized by amine coupling on a C1 chip (GE Healthcare). The different TCB molecules were captured at 25 nM. Three-fold dilution series (in HBS-EP from 0.14 to 100 nM) of the CD19 antigen (CD19 extracellular domain (ECD)-Fc fusion; see SEQ ID NOs 99 and 100) or the CD3 antigen (see Example 3, SEQ ID NOs 41 and 42) were passed over the ligand at 30 μl/min for 240 s to record the association phase. The dissociation phase was monitored for 1500 s (CD19 antigen) or 800 s (CD3 antigen)s and triggered by switching from the sample solution to HBS-EP+. The chip surface was regenerated after every cycle using two injections of 10 mM glycine pH 2.1 for 60 sec. Bulk refractive index differences were corrected for by subtracting the response obtained on the reference flow cell (without captured TCB). The affinity constants were derived from the kinetic rate constants by fitting to a 1:1 Langmuir binding using the Biaeval software (GE Healthcare). The measurement was performed with three independent dilution series.

[2] = target: T3, Human CD3ε stalk-Fc(knob)-Avi/CD3δ stalk-Fc(hole) (human); test: SPR, TCB captured by anti-PG antibody, human CD3ε/δ-Fc as analyte, 25°C
T3 construct: Heterodimer of CD3 delta and CD3 epsilon ectodomains fused to human Fc with knob-into-hole; also called human CD3ε/δ; CD3 antigen
Description: as §1

[3] = target: T1, human CD19 on cells (Nalm-6, Z-138); test: cell-based or functional assay
[4] = target: T4, human CD3 on cells (CD3ε) (human, UniProt P07766 23-207); test: flow cytometry on Jurkat cells
T4 construct: CD3 complex as it stands on Jurkat cells or primary T cells; also called CD3-expressing Jurkat cells; CD3-expressing T cells
T4 sequence (P07766 23-207 limits assumed): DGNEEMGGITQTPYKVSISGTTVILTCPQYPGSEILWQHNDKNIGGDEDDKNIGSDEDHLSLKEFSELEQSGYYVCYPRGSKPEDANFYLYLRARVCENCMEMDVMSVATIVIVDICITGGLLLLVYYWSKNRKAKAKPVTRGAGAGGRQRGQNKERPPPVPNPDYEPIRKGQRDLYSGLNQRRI
Description: (§2) The binding of the CD19-TCB molecules prepared in Example 15 to human CD19- and CD3-expressing target cells was tested. Two CD19-expressing cell lines with different levels of CD19 expression were used. Nalm-6, an acute lymphoblastic leukemia (ALL) cell line with high CD 19 expression and Z-138 (Mantle cell lymphoma) with average expression levels. CD3-binding was assessed using immortalized T lymphocyte line (Jurkat cell line). Briefly, cells were harvested, counted, checked for viability and resuspended at 1×10⁶ cells/ml in FACS buffer (PBS+2% FCS+5 mM EDTA+0.25% sodium azide). […] Binding curves and the EC50 values related to binding were calculated using GraphPad Prism 7.

[5] = target: T1, human CD19 on cells (Nalm-6, Z-138); test: flow cytometry on Nalm-6 cells
Description: as §2

[6] = target: T3, Human CD3ε stalk-Fc(knob)-Avi/CD3δ …; test: SPR on immobilized human CD3ε/δ after stress, relative to sample kept at -80°C pH 6
Description: All SPR experiments were performed on a Biacore T200 instrument (GE Healthcare) at 25° C. with HBS-P+ (10 mM HEPES, 150 mM NaCl pH 7.4, 0.05% Surfactant P20) as running and dilution buffer. Biotinylated human CD3ε/δ (see Example 3, SEQ ID NOs 41 and 42) as well as biotinylated anti-huIgG (Capture Select, Thermo Scientific, #7103262100) were immobilized on a Series S Sensor Chip SA (GE Healthcare, #29104992), resulting in surface densities of at least 1000 resonance units (RU). Anti-CD3 antibodies with a concentration of 2 μg/ml were injected for 30 s at a flow rate of 5 μl/min, and dissociation was monitored for 120 s. The surface was regenerated by injecting 10 mM glycine pH 1.5 for 60 s. Bulk refractive index differences were corrected by subtracting blank injections and by subtracting the response obtained from a blank control flow cell. For evaluation, the binding response 5 seconds after injection end was taken. To normalize the binding signal, the CD3 binding was divided by the anti-huIgG response (the signal (RU) obtained upon capture of the CD3 antibody on the immobilized anti-huIgG antibody). The relative binding activity was calculated by referencing each temperature stressed sample to the corresponding, non-stressed sample.
The experiment was performed as described in Example 4, using the monovalent IgG molecules prepared in Example 19.

[7] = target: T5, Cynomolgus CD3ε stalk-Fc(knob)-Avi/CD3δ stalk-Fc(hole) (cynomolgus); test: SPR, monovalent IgG captured by anti-PG antibody, antigen as analyte, 25°C
T5 construct: also called cynomolgus CD3ε/δ
Description: (§3) SPR experiments were performed as described in Example 3, with the monovalent IgG molecules prepared in Example 19.
(§4) To analyze the interaction to CD3, IgG molecules were captured for 240 s at 50 nM with a flow rate of 5 μl/min. Human and cynomolgus CD3F stalk-Fc(knob)-Avi/CD36-stalk-Fc(hole) were passed at a concentration of 0.061-250 nM with a flow rate of […] through the flow cells for 300 s. The dissociation was monitored for 800 s.

[8] = target: T3, Human CD3ε stalk-Fc(knob)-Avi/CD3δ …; test: as above
Description: as §3, §4

| Binder | Kd [1] | koff [1] | kon [1] | t1/2 [1] | Kd [2] | koff [2] | kon [2] | t1/2 [2] | EC50 [4] | EC50 [5] | binding activity [%] after 2 weeks at pH 6.0/40°C [6] | binding activity [%] after 2 weeks at pH 7.4/37°C [6] | Kd [8] | koff [8] | kon [8] | t1/2 [8] | further results |
| --- | --- | --- | --- | --- | --- | --- | --- | --- | --- | --- | --- | --- | --- | --- | --- | --- | --- |
| CD19-TCB, CD19(018) CD3orig (bispecific antibody, human IgG1, kappa, L234A L235A, 2+1 IgG CrossFab, inverted; human IgG1 Fc, knob-into-hole, PGLALA) heavy 1: not shown heavy 2: QVQLVQSGAEVKKPGASVKVSCKASGYTFTDYIMHWVRQAPGQGLEWMGYINPYNDGSKYTEKFQGRVTMTSDTSISTAYMELSRLRSDDTAVYYCARGTYYYGSALFDYWGQGTTVTVSSASTKGPSVFPLAPSSKSTSGGTAALGCLVEDYFPEPVTVSWNSGALTSGVHTFPAVLQSSGLYSLSSVVTVPSSSLGTQTYICNVNHKPSNTKVDEKVEPKSCDKTHTCPPCPAPEAAGGPSVFLFPPKPKDTLMISRTPEVTCVVVDVSHEDPEVKFNWYVDGVEVHNAKTKPREEQYNSTYRVVSVLTVLHQDWLNGKEYKCKVSNKALGAPIEKTISKAKGQPREPQVCTLPPSRDELTKNQVSLSCAVKGFYPSDIAVEWESNGQPENNYKTTPPVLDSDGSFFLVSKLTVDKSRWQQGNVFSCSVMHEALHNHYTQKSLSLSP light 1: DIVMTQTPLSLSVTPGQPASISCKSSQSLENPNGNTYLNWYLQKPGQSPQLLIYRVSKRFSGVPDRFSGSGSGTDFTLKISRVEAEDVGVYYCLQLTHVPYTFGQGTKLEIKRTVAAPSVFIFPPSDRKLKSGTASVVCLLNNFYPREAKVQWKVDNALQSGNSQESVTEQDSKDSTYSLSSTLTLSKADYEKHKVYACEVTHQGLSSPVTKSFNRGEC light 2: EVQLLESGGGLVQPGGSLRLSCAASGFTFSTYAMNWVRQAPGKGLEWVSRIRSKYNNYATYYADSVKGRFTISRDDSKNTLYLQMNSLRAEDTAVYYCVRHGNFGNSYVSWFAYWGQGTLVTVSSASVAAPSVFIFPPSDEQLKSGTASVVCLLNNFYPREAKVQWKVDNALQSGNSQESVTEQDSKDSTYSLSSTLTLSKADYEKHKVYACEVTHQGLSSPVTKSFNRGEC | 0.95 nM | 0.000316 s⁻¹ | 333000 M⁻¹ s⁻¹ | 36.6 min | 3.57 nM | 0.00333 s⁻¹ | 933000 M⁻¹ s⁻¹ | 3.5 min | 115 nM | 1.5 nM | – | – | – | – | – | – | EC50 (pM) of tumor cell lysis, Nalm-6 target cells [3]: 0.3 pM; EC50 (pM) of tumor cell lysis, Z-138 target cells [3]: 5.4 pM |
| anti-CD3 antibody clone P035.093 in monovalent IgG format (antibody, also called monovalent IgG P035.093) heavy: not shown DKTHTCPPCPAPEAAGGPSVFLFPPKPKDTLMISRTPEVTCVVVDVSHEDPEVKFNWYVDGVEVHNAKTKPREEQYNSTYRVVSVLTVLHQDWLNGKEYKCKVSNKALGAPIEKTISKAKGQPREPQVCTLPPSRDELTKNQVSLSCAVKGFYPSDIAVEWESNGQPENNYKTTPPVLDSDGSFFLVSKLTVDKSRWQQGNVFSCSVMHEALHNHYTQKSLSLSP light: EVQLLESGGGLVQPGGSLRLSCAASGFTFSSYAMNWVRQAPGKGLEWVSRIRSKYNNYATYYADSVKGRFTISRDDSKNTLYLQMNSLRAEDTAVYYCVRASNFPASYVSYFAYWGQGTLVTVSSASVAAPSVFIFPPSDEQLKSGTASVVCLLNNFYPREAKVQWKVDNALQSGNSQESVTEQDSKDSTYSLSSTLTLSKADYEKHKVYACEVTHQGLSSPVTKSFNRGEC | – | – | – | – | – | – | – | – | – | – | 100% | 93% | 0.456 nM | 0.0014 s⁻¹ | 3.08e+06 M⁻¹ s⁻¹ | 8.25 min | Kd [7]: 0.224 nM; koff [7]: 0.000981 s⁻¹; kon [7]: 4.38e+06 M⁻¹ s⁻¹; t1/2 [7]: 11.8 min |
| CD19-TCB, CD19(2B11) CD3 variant P035.093 (bispecific antibody, human IgG1, kappa, L234A L235A, 2+1 IgG CrossFab, inverted; human IgG1 Fc, knob-into-hole, PGLALA) heavy 1: not shown heavy 2: QVQLVQSGAEVKKPGASVKVSCKASGYTFTDYIMHWVRQAPGQGLEWMGYINPYNDGSKYTEKFQGRVTMTSDTSISTAYMELSRLRSDDTAVYYCARGTYYYGPQLFDYWGQGTTVTVSSASTKGPSVFPLAPSSKSTSGGTAALGCLVEDYFPEPVTVSWNSGALTSGVHTFPAVLQSSGLYSLSSVVTVPSSSLGTQTYICNVNHKPSNTKVDEKVEPKSCDKTHTCPPCPAPEAAGGPSVFLFPPKPKDTLMISRTPEVTCVVVDVSHEDPEVKFNWYVDGVEVHNAKTKPREEQYNSTYRVVSVLTVLHQDWLNGKEYKCKVSNKALGAPIEKTISKAKGQPREPQVCTLPPSRDELTKNQVSLSCAVKGFYPSDIAVEWESNGQPENNYKTTPPVLDSDGSFFLVSKLTVDKSRWQQGNVFSCSVMHEALHNHYTQKSLSLSP light 1: DIVMTQTPLSLSVTPGQPASISCKSSQSLETSTGTTYLNWYLQKPGQSPQLLIYRVSKRFSGVPDRFSGSGSGTDFTLKISRVEAEDVGVYYCLQLLEDPYTFGQGTKLEIKRTVAAPSVFIFPPSDRKLKSGTASVVCLLNNFYPREAKVQWKVDNALQSGNSQESVTEQDSKDSTYSLSSTLTLSKADYEKHKVYACEVTHQGLSSPVTKSFNRGEC light 2: EVQLLESGGGLVQPGGSLRLSCAASGFTFSSYAMNWVRQAPGKGLEWVSRIRSKYNNYATYYADSVKGRFTISRDDSKNTLYLQMNSLRAEDTAVYYCVRASNFPASYVSYFAYWGQGTLVTVSSASVAAPSVFIFPPSDEQLKSGTASVVCLLNNFYPREAKVQWKVDNALQSGNSQESVTEQDSKDSTYSLSSTLTLSKADYEKHKVYACEVTHQGLSSPVTKSFNRGEC | 0.32 nM | 0.000146 s⁻¹ | 458000 M⁻¹ s⁻¹ | 79.1 min | 0.38 nM | 0.00135 s⁻¹ | 3.56e+06 M⁻¹ s⁻¹ | 8.6 min | 22.3 nM | 0.6 nM | – | – | – | – | – | – | – |
| CD3orig in monovalent IgG format (antibody, also called monovalent IgG CD3orig) heavy: not shown DKTHTCPPCPAPEAAGGPSVFLFPPKPKDTLMISRTPEVTCVVVDVSHEDPEVKFNWYVDGVEVHNAKTKPREEQYNSTYRVVSVLTVLHQDWLNGKEYKCKVSNKALGAPIEKTISKAKGQPREPQVCTLPPSRDELTKNQVSLSCAVKGFYPSDIAVEWESNGQPENNYKTTPPVLDSDGSFFLVSKLTVDKSRWQQGNVFSCSVMHEALHNHYTQKSLSLSP light: EVQLLESGGGLVQPGGSLRLSCAASGFTFSTYAMNWVRQAPGKGLEWVSRIRSKYNNYATYYADSVKGRFTISRDDSKNTLYLQMNSLRAEDTAVYYCVRHGNFGNSYVSWFAYWGQGTLVTVSSASVAAPSVFIFPPSDEQLKSGTASVVCLLNNFYPREAKVQWKVDNALQSGNSQESVTEQDSKDSTYSLSSTLTLSKADYEKHKVYACEVTHQGLSSPVTKSFNRGEC | – | – | – | – | – | – | – | – | – | – | 97% | 60% | 4.94 nM | 0.0029 s⁻¹ | 587000 M⁻¹ s⁻¹ | 3.98 min | – |

Reference: patent US20260125469A1 (Hoffmann-La Roche, published 2026)
